Data as given in patent US20240093162.

What was measured:
[1] = target: T1, Pro-Tgase variant (thermostable variant of Streptomyces mobaraensis Tgase in zymogen form)
T1 chain: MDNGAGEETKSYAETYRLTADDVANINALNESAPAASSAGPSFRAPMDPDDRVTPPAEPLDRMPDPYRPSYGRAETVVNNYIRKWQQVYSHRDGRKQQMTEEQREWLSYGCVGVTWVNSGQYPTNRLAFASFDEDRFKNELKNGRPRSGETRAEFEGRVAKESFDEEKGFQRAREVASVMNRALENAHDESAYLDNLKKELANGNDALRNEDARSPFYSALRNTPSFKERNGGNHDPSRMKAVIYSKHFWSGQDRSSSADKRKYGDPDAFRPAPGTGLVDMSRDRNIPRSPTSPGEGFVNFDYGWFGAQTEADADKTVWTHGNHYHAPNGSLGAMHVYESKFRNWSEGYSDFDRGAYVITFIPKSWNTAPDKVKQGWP

[2] = target: T2, FRAP-Tgase variant (thermostable variant of Streptomyces mobaraensis Tgase having a FRAP tetrapeptide at the N-terminal end)
T2 chain: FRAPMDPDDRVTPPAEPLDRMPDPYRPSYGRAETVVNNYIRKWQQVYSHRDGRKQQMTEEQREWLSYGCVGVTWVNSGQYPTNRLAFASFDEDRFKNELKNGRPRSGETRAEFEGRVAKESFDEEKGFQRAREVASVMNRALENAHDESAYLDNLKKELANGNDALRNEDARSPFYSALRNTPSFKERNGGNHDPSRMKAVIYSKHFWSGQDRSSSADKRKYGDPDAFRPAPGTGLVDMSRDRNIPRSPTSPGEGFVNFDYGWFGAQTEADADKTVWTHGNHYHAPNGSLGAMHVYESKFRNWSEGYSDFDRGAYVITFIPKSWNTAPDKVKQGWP

B1: Streptomyces mobaraensis transglutaminase-activating M4 metalloprotease (TAMEP), mature, catalytically active form (protein)
chain: GTGNSQHSGQVQIGTTKSGSSYQMNDTTRGGHKTYNLNHGSSGTGTLFTDSDDVWGNGTNSDPATAGVDAHYGAQLTWDYYKNVHGRNGIRGDGVGAYSRVHYGNNYVNAFWDDSCFCMTYGDGNGIPLTSIDVAAHEMTHGVTSATANLTYSGESGGLNEATSDMMATAVEFWANNPADPGDYLIGEKININGDGTPLRYMDKPSKDGASKDAWYSGLGGIDVHYSSGPANHWFYLASEGSGPKDIGGVHYDSPTSDGLPVTGVGRDNAAKIWFKALTERMQSNTDYKGARDATLWAAGELFGVNSDTYNNVANAWAAINVGPRASSGVSVTSPGDQTSIVNQAVSLQIKATGSTSGALTYSATGLPAGLSINASTGLISGTPTTTGTSNVTVTVKDSAGKTGSTSFKWTVNTTGGGSVFENTTQVAIPDAGAAVTSPIVVTRSGNGPSALKVDVNITHTYRGDLTIDLVAPNGKTWRLKNSDAWDSAADVSETYTVDASSVSANGTWKLKVQDVYSGDSGTIDKWRLTF
[1]
  proteolytic cleavage by soluble TAMEP: UPLC-MS total ion counts of the cleaved pro-peptide, and N-terminal sequencing: N-terminal peptide sequencing, performed as described in Example 2 above, confirmed that the FRAP amino acid sequence was present on the N-terminal end of the catalytically active, not mature FRAP-Tgase variant (SEQ ID NO:5)
  proteolytic digestion by TAMEP immobilized on porous solid supports: UPLC-MS, colorimetric Tgase activity assay, N-terminal sequencing: Activity assay results showed that TAMEP retained protease activity when immobilized on all the porous solid supports shown in Table 2
  proteolytic digestion by co-immobilized TAMEP and SM-TAP: UPLC-MS FRAP tetrapeptide area counts: Activity assay results showed that co-immobilized TAMEP and SM-TAP retained protease activity on all the porous solid supports set forth in Table 3 below

B2: Streptomyces mobaraensis transglutaminase-activating tripeptidyl aminopeptidase (SM-TAP), mature, catalytically active form (protein)
chain: QADIKDRILKIPGMKFVEEKPYQGYRYLVMTYRQPVDHRNPGKGTFEQRFTLLHKDTDRPTVFFTSGYNVSTNPSRSEPTRIVDGNQVSMEYRFFTPSRPQPADWSKLDIWQAASDQHRLYQALKPVYGKNWLATGGSKGGMTATYFRRFYPNDMNGTVAYVAPNDVNDKEDSAYDKFFQNVGDKACRTQLNSVQREALVRRDEIVARYEKWAKENGKTFKVVGSADKAYENVVLDLVWSFWQYHLQSDCASVPATKASTDELYKFIDDISGFDGYTDQGLERFTPYYYQAGTQLGAPTVKNPHLKGVLRYPGINQPRSYVPRDIPMTFRPGAMADVDRWVREDSRNMLFVYGQNDPWSGEPFRLGKGAAARHDYRFYAPGGNHGSNIAQLVADERAKATAEVLKWAGVAPQAVQKDEKAAKPLAPFDAKLDRVKNDKQSALRP
[2]
  proteolytic cleavage by soluble SM-TAP: UPLC-MS total area count of FRAP tetrapeptide, and N-terminal sequencing: N-terminal peptide sequencing, performed as described in Example 2 above, confirmed that the FRAP tetrapeptide had been removed from the N-terminal end of the FRAP-Tgase variant (SEQ ID NO:5) resulting in a mature, catalytically active Tgase variant (SEQ ID NO:6)
  proteolytic digestion by SM-TAP immobilized on porous solid supports: UPLC-MS, colorimetric Tgase activity assay, N-terminal sequencing: Activity assay results showed that SM-TAP retained protease activity when immobilized on all the porous solid supports shown in Table 2
  proteolytic digestion by co-immobilized TAMEP and SM-TAP: UPLC-MS FRAP tetrapeptide area counts, N-terminal sequencing: Activity assay results showed that co-immobilized TAMEP and SM-TAP retained protease activity on all the porous solid supports set forth in Table 3 below
